Measured values published in publication PMC10786891, “Massively parallel profiling of RNA-targeting CRISPR-Cas13d”.

biological target: T1, EsCas13d, nuclease-dead (Eubacterium siraeum, UniProt B0MS50, R295A;H300A;R849A;H854A); assay: crRNA (strand 1, pre-loaded); Mg2+; 40 mM Tris-HCl pH 7.5, 150 mM NaCl, 6 mM MgCl2, 1 mM DTT, 0.1% Tween-20, 0.2 mg/ml BSA; 25 C; 10 min per concentration, then washed; settings: tags: His6-TwinStrep-SUMO cleaved; N-terminal SNAP kept (SNAP-Surface 488); label: 3' end held by stalled T7 RNA polymerase
T1 sequence: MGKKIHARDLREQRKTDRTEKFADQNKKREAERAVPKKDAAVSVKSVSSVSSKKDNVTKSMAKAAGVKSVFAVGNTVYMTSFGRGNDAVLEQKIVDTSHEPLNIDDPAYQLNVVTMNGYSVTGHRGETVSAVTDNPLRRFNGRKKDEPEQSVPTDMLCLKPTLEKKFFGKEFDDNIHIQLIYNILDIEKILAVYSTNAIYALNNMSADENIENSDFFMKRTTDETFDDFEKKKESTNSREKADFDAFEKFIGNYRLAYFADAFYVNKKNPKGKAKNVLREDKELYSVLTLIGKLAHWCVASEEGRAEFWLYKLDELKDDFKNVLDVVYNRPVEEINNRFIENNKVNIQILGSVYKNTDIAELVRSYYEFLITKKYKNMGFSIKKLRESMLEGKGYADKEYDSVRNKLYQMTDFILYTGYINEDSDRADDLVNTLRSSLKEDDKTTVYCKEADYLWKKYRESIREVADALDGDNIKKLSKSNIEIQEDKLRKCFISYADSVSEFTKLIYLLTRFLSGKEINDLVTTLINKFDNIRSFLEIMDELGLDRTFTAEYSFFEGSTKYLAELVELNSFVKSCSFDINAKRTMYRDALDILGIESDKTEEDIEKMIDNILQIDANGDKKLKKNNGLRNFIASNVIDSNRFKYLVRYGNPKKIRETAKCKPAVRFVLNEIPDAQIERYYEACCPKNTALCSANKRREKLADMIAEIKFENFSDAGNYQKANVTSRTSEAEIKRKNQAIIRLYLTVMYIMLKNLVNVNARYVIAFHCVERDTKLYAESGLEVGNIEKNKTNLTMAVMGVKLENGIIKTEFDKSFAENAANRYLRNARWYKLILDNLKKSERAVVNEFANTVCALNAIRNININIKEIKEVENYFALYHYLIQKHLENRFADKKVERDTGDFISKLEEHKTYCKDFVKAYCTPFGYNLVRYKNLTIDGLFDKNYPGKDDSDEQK

Binder | Kd [nM]
target 2 MT 5'PFS CGC 3'PFS ACU (mixed) RNA 1: CACCCGUGCAAAAUUGCAGGGGUCUAAAACCUUCUCCAAAUUGUUUCAUCCU RNA 2: GGGAAUGGAUCCACAUCUACGAAUUCCGCAGGAUGAAACAAUUUGGAGAAGACUAGAUCGGAAGAGCACACGU | 6 ± 0.8
target 2 MT 5'PFS ACG 3'PFS CAG (mixed) RNA 1: CACCCGUGCAAAAUUGCAGGGGUCUAAAACCUUCUCCAAAUUGUUUCAUCCU RNA 2: GGGAAUGGAUCCACAUCUACGAAUUCACGAGGAUGAAACAAUUUGGAGAAGCAGAGAUCGGAAGAGCACACGU | 7.7 ± 1.4
target 2 MT 5'PFS ACG 3'PFS CAC (mixed) RNA 1: CACCCGUGCAAAAUUGCAGGGGUCUAAAACCUUCUCCAAAUUGUUUCAUCCU RNA 2: GGGAAUGGAUCCACAUCUACGAAUUCACGAGGAUGAAACAAUUUGGAGAAGCACAGAUCGGAAGAGCACACGU | 5.7 ± 1.2
target 2 MT 5'PFS GCG 3'PFS AGU (mixed) RNA 1: CACCCGUGCAAAAUUGCAGGGGUCUAAAACCUUCUCCAAAUUGUUUCAUCCU RNA 2: GGGAAUGGAUCCACAUCUACGAAUUCGCGAGGAUGAAACAAUUUGGAGAAGAGUAGAUCGGAAGAGCACACGU | 11.6 ± 2.1
target 2 MT 5'PFS CGC 3'PFS ACC (mixed) RNA 1: CACCCGUGCAAAAUUGCAGGGGUCUAAAACCUUCUCCAAAUUGUUUCAUCCU RNA 2: GGGAAUGGAUCCACAUCUACGAAUUCCGCAGGAUGAAACAAUUUGGAGAAGACCAGAUCGGAAGAGCACACGU | 18 ± 4
target 2 MT 5'PFS CUG 3'PFS ACA (mixed) RNA 1: CACCCGUGCAAAAUUGCAGGGGUCUAAAACCUUCUCCAAAUUGUUUCAUCCU RNA 2: GGGAAUGGAUCCACAUCUACGAAUUCCUGAGGAUGAAACAAUUUGGAGAAGACAAGAUCGGAAGAGCACACGU | 3.9 ± 0.5
target 1 G13C,A14C (mixed) RNA 1: CACCCGUGCAAAAAUGCAGGGGUCUAAAACUGAGCGGAUAACCUCUCUAUGG RNA 2: GGGAAUGGAUCCACAUCUACGAAUUCGUACCAUAGAGCCGUUAUCCGCUCACCGAGAUCGGAAGAGCACACGU | 50 ± 9
target 2 MT 5'PFS CGC 3'PFS ACA (mixed) RNA 1: CACCCGUGCAAAAUUGCAGGGGUCUAAAACCUUCUCCAAAUUGUUUCAUCCU RNA 2: GGGAAUGGAUCCACAUCUACGAAUUCCGCAGGAUGAAACAAUUUGGAGAAGACAAGAUCGGAAGAGCACACGU | 11 ± 5
target 2 MT 5'PFS CUG 3'PFS ACC (mixed) RNA 1: CACCCGUGCAAAAUUGCAGGGGUCUAAAACCUUCUCCAAAUUGUUUCAUCCU RNA 2: GGGAAUGGAUCCACAUCUACGAAUUCCUGAGGAUGAAACAAUUUGGAGAAGACCAGAUCGGAAGAGCACACGU | 5.6 ± 1.2
target 2 MT 5'PFS CGC 3'PFS ACG (mixed) RNA 1: CACCCGUGCAAAAUUGCAGGGGUCUAAAACCUUCUCCAAAUUGUUUCAUCCU RNA 2: GGGAAUGGAUCCACAUCUACGAAUUCCGCAGGAUGAAACAAUUUGGAGAAGACGAGAUCGGAAGAGCACACGU | 5.2 ± 0.7
target 2 MT 5'PFS CUG 3'PFS ACG (mixed) RNA 1: CACCCGUGCAAAAUUGCAGGGGUCUAAAACCUUCUCCAAAUUGUUUCAUCCU RNA 2: GGGAAUGGAUCCACAUCUACGAAUUCCUGAGGAUGAAACAAUUUGGAGAAGACGAGAUCGGAAGAGCACACGU | 2.89 ± 0.25
target 2 MT 5'PFS ACU 3'PFS AAC (mixed) RNA 1: CACCCGUGCAAAAUUGCAGGGGUCUAAAACCUUCUCCAAAUUGUUUCAUCCU RNA 2: GGGAAUGGAUCCACAUCUACGAAUUCACUAGGAUGAAACAAUUUGGAGAAGAACAGAUCGGAAGAGCACACGU | 5.7 ± 0.8
target 2 MT 5'PFS ACU 3'PFS AAA (mixed) RNA 1: CACCCGUGCAAAAUUGCAGGGGUCUAAAACCUUCUCCAAAUUGUUUCAUCCU RNA 2: GGGAAUGGAUCCACAUCUACGAAUUCACUAGGAUGAAACAAUUUGGAGAAGAAAAGAUCGGAAGAGCACACGU | 4.7 ± 1.7
target 2 MT 5'PFS ACU 3'PFS AAG (mixed) RNA 1: CACCCGUGCAAAAUUGCAGGGGUCUAAAACCUUCUCCAAAUUGUUUCAUCCU RNA 2: GGGAAUGGAUCCACAUCUACGAAUUCACUAGGAUGAAACAAUUUGGAGAAGAAGAGAUCGGAAGAGCACACGU | 3.7 ± 0.5
target 2 MT 5'PFS ACU 3'PFS AAU (mixed) RNA 1: CACCCGUGCAAAAUUGCAGGGGUCUAAAACCUUCUCCAAAUUGUUUCAUCCU RNA 2: GGGAAUGGAUCCACAUCUACGAAUUCACUAGGAUGAAACAAUUUGGAGAAGAAUAGAUCGGAAGAGCACACGU | 4.1 ± 0.5
target 2 MT 5'PFS GAU 3'PFS AGU (mixed) RNA 1: CACCCGUGCAAAAUUGCAGGGGUCUAAAACCUUCUCCAAAUUGUUUCAUCCU RNA 2: GGGAAUGGAUCCACAUCUACGAAUUCGAUAGGAUGAAACAAUUUGGAGAAGAGUAGAUCGGAAGAGCACACGU | 12.3 ± 2
target 2 MT 5'PFS UCG 3'PFS CAC (mixed) RNA 1: CACCCGUGCAAAAUUGCAGGGGUCUAAAACCUUCUCCAAAUUGUUUCAUCCU RNA 2: GGGAAUGGAUCCACAUCUACGAAUUCUCGAGGAUGAAACAAUUUGGAGAAGCACAGAUCGGAAGAGCACACGU | 27 ± 8
target 1 insG 3' of 16,insU 3' of 12 (mixed) RNA 1: CACCCGUGCAAAAAUGCAGGGGUCUAAAACUGAGCGGAUAACCUCUCUAUGG RNA 2: GGGAAUGGAUCCACAUCUACGAAUUCGUACCAUAGAGGAGGUUUAUCCGCUCACCGAGAUCGGAAGAGCACACGU | 12.3 ± 0.9
target 1 insA 3' of 2,insG 3' of 2 (mixed) RNA 1: CACCCGUGCAAAAAUGCAGGGGUCUAAAACUGAGCGGAUAACCUCUCUAUGG RNA 2: GGGAAUGGAUCCACAUCUACGAAUUCGUACCAUAGAGAGGUUAUCCGCUCAGACCGAGAUCGGAAGAGCACACGU | 10.5 ± 1.2
target 2 MT 5'PFS UCG 3'PFS CAA (mixed) RNA 1: CACCCGUGCAAAAUUGCAGGGGUCUAAAACCUUCUCCAAAUUGUUUCAUCCU RNA 2: GGGAAUGGAUCCACAUCUACGAAUUCUCGAGGAUGAAACAAUUUGGAGAAGCAAAGAUCGGAAGAGCACACGU | 10.7 ± 1.9
target 2 MT 5'PFS UCG 3'PFS CAG (mixed) RNA 1: CACCCGUGCAAAAUUGCAGGGGUCUAAAACCUUCUCCAAAUUGUUUCAUCCU RNA 2: GGGAAUGGAUCCACAUCUACGAAUUCUCGAGGAUGAAACAAUUUGGAGAAGCAGAGAUCGGAAGAGCACACGU | 18.7 ± 2.6
target 2 MT 5'PFS GCC 3'PFS AAU (mixed) RNA 1: CACCCGUGCAAAAUUGCAGGGGUCUAAAACCUUCUCCAAAUUGUUUCAUCCU RNA 2: GGGAAUGGAUCCACAUCUACGAAUUCGCCAGGAUGAAACAAUUUGGAGAAGAAUAGAUCGGAAGAGCACACGU | 18 ± 5
target 2 MT 5'PFS GUC 3'PFS GAC (mixed) RNA 1: CACCCGUGCAAAAUUGCAGGGGUCUAAAACCUUCUCCAAAUUGUUUCAUCCU RNA 2: GGGAAUGGAUCCACAUCUACGAAUUCGUCAGGAUGAAACAAUUUGGAGAAGGACAGAUCGGAAGAGCACACGU | 12.2 ± 2.8
target 2 MT 5'PFS GAU 3'PFS AGG (mixed) RNA 1: CACCCGUGCAAAAUUGCAGGGGUCUAAAACCUUCUCCAAAUUGUUUCAUCCU RNA 2: GGGAAUGGAUCCACAUCUACGAAUUCGAUAGGAUGAAACAAUUUGGAGAAGAGGAGAUCGGAAGAGCACACGU | 10.4 ± 1
target 2 MT 5'PFS GAU 3'PFS AGA (mixed) RNA 1: CACCCGUGCAAAAUUGCAGGGGUCUAAAACCUUCUCCAAAUUGUUUCAUCCU RNA 2: GGGAAUGGAUCCACAUCUACGAAUUCGAUAGGAUGAAACAAUUUGGAGAAGAGAAGAUCGGAAGAGCACACGU | 8 ± 1.1
target 2 MT 5'PFS UCG 3'PFS CAU (mixed) RNA 1: CACCCGUGCAAAAUUGCAGGGGUCUAAAACCUUCUCCAAAUUGUUUCAUCCU RNA 2: GGGAAUGGAUCCACAUCUACGAAUUCUCGAGGAUGAAACAAUUUGGAGAAGCAUAGAUCGGAAGAGCACACGU | ~30
target 2 MT 5'PFS GAU 3'PFS AGC (mixed) RNA 1: CACCCGUGCAAAAUUGCAGGGGUCUAAAACCUUCUCCAAAUUGUUUCAUCCU RNA 2: GGGAAUGGAUCCACAUCUACGAAUUCGAUAGGAUGAAACAAUUUGGAGAAGAGCAGAUCGGAAGAGCACACGU | 7.1 ± 0.6
target 2 MT 5'PFS GUU 3'PFS CAG (mixed) RNA 1: CACCCGUGCAAAAUUGCAGGGGUCUAAAACCUUCUCCAAAUUGUUUCAUCCU RNA 2: GGGAAUGGAUCCACAUCUACGAAUUCGUUAGGAUGAAACAAUUUGGAGAAGCAGAGAUCGGAAGAGCACACGU | 10.9 ± 0.9
